Assay results as given in publication PMC4598089, “An Sp1 Modulated Regulatory Region Unique to Higher Primates Regulates Human Androgen Receptor Promoter Activity in Prostate Cancer Cells”.

B1: ARS (dsDNA)
DNA 1: TCTCCACCCCGCCTCCCCCCACCCTGCCTT
DNA 2: AAGGCAGGGTGGGGGGAGGCGGGGTGGAGA
B2: Sp1-3 (dsDNA)
DNA 1: TTCTCCCCACCCGCCCCCCCGCCCCCGTCG
DNA 2: CGACGGGGGCGGGGGGGCGGGTGGGGAGAA
B3: Sp1-1 (dsDNA)
DNA 1: CGGCCCGGTGGGGGCGGGACCCGACTCGCA
DNA 2: TGCGAGTCGGGTCCCGCCCCCACCGGGCCG

Target: Sp1 (purified recombinant) (Homo sapiens, UniProt P08047 1-785)
Sequence (P08047 whole entry): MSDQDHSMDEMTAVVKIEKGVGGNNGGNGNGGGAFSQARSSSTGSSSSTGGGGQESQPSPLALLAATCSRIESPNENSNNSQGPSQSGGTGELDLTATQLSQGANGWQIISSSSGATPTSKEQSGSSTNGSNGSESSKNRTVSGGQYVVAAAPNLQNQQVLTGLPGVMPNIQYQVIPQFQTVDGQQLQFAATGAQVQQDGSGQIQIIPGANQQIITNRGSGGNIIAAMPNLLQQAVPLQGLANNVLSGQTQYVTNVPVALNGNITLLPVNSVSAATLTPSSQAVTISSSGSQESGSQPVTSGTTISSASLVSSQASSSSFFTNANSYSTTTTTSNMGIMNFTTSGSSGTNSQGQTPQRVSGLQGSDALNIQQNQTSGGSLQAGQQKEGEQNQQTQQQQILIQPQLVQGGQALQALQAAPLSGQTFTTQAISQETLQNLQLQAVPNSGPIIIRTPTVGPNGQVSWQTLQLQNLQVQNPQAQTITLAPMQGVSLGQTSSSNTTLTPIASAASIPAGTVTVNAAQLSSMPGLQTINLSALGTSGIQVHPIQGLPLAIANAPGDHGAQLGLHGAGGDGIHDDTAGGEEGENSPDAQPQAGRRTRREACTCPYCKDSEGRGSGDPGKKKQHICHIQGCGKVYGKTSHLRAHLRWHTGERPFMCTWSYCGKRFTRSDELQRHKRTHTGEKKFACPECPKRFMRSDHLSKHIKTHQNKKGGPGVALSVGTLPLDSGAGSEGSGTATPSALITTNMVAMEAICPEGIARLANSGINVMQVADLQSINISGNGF
Assay: EMSA; EMSA: 10 ug nuclear extract or 120 nM Sp1, 20 fmol biotin probe; binding buffer per earlier paper (not given); 6% native PAGE, 0.5x TBE pH 8.3, cooled gel. pur-alpha bands not listed: antibody had no effect, protein not identified in extract.
Details: label: 3' biotin, blunt

**Q.** Does B1 bind?
**A.** binds

**Q.** Does B2 bind?
**A.** binds

**Q.** Does B3 bind?
**A.** binds
